Reference: the supplement of paper PMC10065799, “High-throughput profiling of sequence recognition by tyrosine kinases and SH2 domains using bacterial peptide display” (eLife, 2023)

Assays:
[1] = test system: AncSZ; assay: phosphorylation enrichment, bacterial display (enrichment ratio); higher = better substrate or ligand; peptides without Tyr show the background
[2] = test system: c-Abl (mouse); assay: as above
[3] = test system: c-Src; assay: as above
[4] = target: Fyn (UniProt P06241); assay: as above
Chain of Fyn (P06241 whole entry, looked up): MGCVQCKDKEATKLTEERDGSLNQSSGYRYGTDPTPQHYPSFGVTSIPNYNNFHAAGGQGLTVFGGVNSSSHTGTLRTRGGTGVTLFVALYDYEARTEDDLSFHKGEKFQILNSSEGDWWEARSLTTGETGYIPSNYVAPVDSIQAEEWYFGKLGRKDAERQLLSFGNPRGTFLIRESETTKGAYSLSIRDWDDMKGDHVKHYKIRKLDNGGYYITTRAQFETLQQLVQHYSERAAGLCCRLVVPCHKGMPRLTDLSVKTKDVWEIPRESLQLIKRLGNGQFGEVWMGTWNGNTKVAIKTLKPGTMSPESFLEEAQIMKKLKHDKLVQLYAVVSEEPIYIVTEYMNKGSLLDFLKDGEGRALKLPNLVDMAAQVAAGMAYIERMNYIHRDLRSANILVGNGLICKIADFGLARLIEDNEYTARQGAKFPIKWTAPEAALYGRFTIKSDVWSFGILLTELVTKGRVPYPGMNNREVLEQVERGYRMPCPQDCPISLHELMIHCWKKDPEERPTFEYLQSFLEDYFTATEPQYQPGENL

[5] = target: MERTK (UniProt Q12866); assay: as above
[6] = target: EPHB2 (UniProt P29323); assay: as above
Chain of EPHB2 (P29323 whole entry, looked up): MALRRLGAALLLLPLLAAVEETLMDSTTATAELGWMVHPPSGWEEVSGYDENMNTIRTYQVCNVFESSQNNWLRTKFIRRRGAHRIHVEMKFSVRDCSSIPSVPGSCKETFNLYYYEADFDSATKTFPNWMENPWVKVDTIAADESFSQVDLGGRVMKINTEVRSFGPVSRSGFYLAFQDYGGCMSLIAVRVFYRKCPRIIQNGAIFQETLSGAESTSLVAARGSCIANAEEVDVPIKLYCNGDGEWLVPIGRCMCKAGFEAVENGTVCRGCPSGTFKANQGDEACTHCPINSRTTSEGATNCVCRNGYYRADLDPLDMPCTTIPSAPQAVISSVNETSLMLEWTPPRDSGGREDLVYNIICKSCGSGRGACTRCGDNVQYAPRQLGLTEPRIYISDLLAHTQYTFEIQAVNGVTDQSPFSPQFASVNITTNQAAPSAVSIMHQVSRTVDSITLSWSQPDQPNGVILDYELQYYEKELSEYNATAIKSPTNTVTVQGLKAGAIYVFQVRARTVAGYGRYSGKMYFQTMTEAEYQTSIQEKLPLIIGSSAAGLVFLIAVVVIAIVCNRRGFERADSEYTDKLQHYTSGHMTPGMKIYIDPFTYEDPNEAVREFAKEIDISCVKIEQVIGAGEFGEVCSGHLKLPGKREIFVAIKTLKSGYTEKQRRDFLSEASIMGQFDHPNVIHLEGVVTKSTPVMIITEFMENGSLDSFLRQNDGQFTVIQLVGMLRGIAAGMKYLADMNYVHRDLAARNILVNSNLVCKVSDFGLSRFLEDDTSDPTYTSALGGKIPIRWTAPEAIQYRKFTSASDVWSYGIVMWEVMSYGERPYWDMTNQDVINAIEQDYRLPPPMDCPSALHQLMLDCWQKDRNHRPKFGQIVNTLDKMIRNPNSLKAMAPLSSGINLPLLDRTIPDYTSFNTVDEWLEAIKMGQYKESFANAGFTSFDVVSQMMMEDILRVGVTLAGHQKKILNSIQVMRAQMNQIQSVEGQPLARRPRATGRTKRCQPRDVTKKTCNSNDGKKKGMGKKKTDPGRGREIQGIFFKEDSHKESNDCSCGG

[7] = target: FGFR3 (UniProt P22607); assay: as above
Chain of FGFR3 (P22607 whole entry, looked up): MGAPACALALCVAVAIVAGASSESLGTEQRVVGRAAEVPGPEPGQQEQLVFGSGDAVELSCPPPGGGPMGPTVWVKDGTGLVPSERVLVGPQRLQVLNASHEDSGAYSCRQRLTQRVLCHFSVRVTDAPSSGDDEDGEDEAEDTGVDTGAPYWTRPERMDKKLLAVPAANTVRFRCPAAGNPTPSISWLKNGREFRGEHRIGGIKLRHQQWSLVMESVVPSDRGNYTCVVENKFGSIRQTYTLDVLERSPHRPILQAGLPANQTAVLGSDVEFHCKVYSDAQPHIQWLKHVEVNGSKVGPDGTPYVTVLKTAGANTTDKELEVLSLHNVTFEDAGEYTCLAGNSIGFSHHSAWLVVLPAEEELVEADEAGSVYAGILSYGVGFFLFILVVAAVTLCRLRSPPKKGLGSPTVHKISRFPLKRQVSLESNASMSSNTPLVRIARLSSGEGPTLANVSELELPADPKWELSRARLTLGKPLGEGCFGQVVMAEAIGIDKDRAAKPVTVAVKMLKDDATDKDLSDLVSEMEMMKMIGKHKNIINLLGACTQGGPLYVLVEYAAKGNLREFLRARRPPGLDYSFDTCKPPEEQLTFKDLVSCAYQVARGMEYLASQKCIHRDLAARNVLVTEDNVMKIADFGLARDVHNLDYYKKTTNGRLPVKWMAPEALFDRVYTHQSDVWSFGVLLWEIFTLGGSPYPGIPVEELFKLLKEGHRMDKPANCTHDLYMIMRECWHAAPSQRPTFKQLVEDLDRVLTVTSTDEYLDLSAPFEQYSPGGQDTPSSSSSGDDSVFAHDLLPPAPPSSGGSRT

[8] = test system: Fer (mouse); assay: as above
[9] = target: EPHB1 (UniProt P54762); assay: as above
Chain of EPHB1 (P54762 whole entry, looked up): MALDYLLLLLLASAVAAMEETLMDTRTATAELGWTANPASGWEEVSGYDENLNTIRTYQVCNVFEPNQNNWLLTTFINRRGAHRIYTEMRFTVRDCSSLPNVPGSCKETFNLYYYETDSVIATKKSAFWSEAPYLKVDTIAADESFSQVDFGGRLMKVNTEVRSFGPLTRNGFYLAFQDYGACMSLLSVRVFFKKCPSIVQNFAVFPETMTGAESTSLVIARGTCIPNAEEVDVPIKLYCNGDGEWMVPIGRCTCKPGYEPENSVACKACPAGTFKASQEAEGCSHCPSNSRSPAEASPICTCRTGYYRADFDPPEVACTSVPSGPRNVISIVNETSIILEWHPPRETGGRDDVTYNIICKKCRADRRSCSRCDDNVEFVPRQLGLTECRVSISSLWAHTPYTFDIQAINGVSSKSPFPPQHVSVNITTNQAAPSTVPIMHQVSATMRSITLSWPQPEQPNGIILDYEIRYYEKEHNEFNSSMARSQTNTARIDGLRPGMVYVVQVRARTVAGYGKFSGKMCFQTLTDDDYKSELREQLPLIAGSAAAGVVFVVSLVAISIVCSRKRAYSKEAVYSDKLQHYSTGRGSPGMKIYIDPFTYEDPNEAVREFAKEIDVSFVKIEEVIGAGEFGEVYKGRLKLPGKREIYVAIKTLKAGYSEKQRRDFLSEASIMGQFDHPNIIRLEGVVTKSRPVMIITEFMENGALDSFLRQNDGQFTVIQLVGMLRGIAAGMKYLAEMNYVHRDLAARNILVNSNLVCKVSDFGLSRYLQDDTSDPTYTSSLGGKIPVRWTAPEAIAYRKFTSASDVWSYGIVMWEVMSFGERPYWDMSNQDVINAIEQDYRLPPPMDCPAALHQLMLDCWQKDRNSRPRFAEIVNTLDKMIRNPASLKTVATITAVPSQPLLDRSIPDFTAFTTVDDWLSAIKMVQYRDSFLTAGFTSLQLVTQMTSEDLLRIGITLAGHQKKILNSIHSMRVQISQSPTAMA

[10] = target: Hck (UniProt P08631); assay: as above
Chain of Hck (P08631 whole entry, looked up): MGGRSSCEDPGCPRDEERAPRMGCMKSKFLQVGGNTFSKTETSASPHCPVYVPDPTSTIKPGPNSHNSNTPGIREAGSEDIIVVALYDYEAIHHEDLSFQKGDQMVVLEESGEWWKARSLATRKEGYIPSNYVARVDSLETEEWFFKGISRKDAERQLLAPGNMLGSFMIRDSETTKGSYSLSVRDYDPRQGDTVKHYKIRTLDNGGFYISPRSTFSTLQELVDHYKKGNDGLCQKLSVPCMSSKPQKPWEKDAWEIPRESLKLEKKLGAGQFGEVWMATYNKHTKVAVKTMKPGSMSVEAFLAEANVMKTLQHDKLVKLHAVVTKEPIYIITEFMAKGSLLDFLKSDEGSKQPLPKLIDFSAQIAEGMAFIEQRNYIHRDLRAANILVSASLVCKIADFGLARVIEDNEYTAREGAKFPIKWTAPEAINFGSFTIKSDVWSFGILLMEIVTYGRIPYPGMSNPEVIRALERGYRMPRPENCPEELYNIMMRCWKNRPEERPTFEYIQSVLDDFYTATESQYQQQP

[11] = target: FGFR1 (UniProt P11362); assay: as above
Chain of FGFR1 (P11362 whole entry, looked up): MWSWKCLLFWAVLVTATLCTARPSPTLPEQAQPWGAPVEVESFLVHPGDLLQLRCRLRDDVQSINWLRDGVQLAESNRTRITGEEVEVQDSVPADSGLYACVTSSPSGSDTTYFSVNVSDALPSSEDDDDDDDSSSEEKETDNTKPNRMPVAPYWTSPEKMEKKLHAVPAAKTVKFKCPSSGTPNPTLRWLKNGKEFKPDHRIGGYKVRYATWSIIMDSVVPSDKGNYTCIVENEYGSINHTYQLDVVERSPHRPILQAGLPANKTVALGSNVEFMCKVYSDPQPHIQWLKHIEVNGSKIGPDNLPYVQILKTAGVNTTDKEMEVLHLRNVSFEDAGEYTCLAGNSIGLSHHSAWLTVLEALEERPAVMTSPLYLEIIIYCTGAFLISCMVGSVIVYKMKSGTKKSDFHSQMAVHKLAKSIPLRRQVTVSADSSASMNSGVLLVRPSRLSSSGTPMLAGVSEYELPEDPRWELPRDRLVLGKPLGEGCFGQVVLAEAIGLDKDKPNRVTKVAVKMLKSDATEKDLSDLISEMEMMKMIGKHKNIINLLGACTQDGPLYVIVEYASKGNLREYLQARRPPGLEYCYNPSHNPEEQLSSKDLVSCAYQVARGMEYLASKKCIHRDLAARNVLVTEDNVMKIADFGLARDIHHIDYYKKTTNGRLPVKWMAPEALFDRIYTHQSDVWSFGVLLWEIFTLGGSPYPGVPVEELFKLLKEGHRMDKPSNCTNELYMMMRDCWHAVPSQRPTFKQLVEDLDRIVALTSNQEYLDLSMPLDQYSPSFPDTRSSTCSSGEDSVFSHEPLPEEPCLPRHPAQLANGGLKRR

[12] = target: Jak2 (UniProt O60674); assay: as above
[13] = target: Fes (UniProt P07332); assay: as above
[14] = target: SHP2-C SH2; assay: SH2 binding enrichment of the phosphorylated peptide, bacterial display (enrichment ratio); higher = better substrate or ligand; peptides without Tyr show the background
[15] = target: Grb2 SH2 (UniProt P62993); assay: as above
[16] = target: c-Src SH2; assay: as above
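Wherever SH2 binding enrichment of the phosphorylated peptide, bacterial display is given: peptide library displayed on the E. coli surface as eCPX fusions, selected cells deep-sequenced, score is each peptide's frequency after selection divided by its frequency in the input.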
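Wherever phosphorylation enrichment, bacterial display is given: 11-residue human phosphosite peptides and single-mutation variants displayed on the E. coli surface, counted by deep sequencing, each peptide's frequency after selection divided by its frequency in the unselected input library; frequency after pTyr selection over input frequency; kinase dosed for 20-30% of maximal phosphorylation in three min.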

| Sequence | SH2 binding enrichment [14] | SH2 binding enrichment [15] | SH2 binding enrichment [16] | phosphorylation enrichment [1] | phosphorylation enrichment [2] | phosphorylation enrichment [3] | phosphorylation enrichment [4] | phosphorylation enrichment [5] | phosphorylation enrichment [6] | phosphorylation enrichment [7] | phosphorylation enrichment [8] | phosphorylation enrichment [9] | phosphorylation enrichment [10] | phosphorylation enrichment [11] | phosphorylation enrichment [12] | phosphorylation enrichment [13] |
| --- | --- | --- | --- | --- | --- | --- | --- | --- | --- | --- | --- | --- | --- | --- | --- | --- |
| RLPSGYGLAYR [DLK1_Y262] | 0.954 | 0.855 | 0.844 | 0.627 | 0.414 | 0.39 | 0.295 | 0.385 | 0.315 | 0.479 | 0.418 | 0.464 | 0.555 | 1.32 | 0.46 | 0.61 |
| GIKAAYEAERG [LMNA_Y81_L85R] | 0.685 | 0.83 | 0.553 | 0.566 | 0.475 | 0.344 | 0.329 | 0.347 | 0.363 | 0.487 | 0.365 | 0.344 | 0.406 | 0.403 | 0.517 | 0.755 |
| GESQGYDIMEA [MSH2_Y863_P868A] | 0.876 | 0.778 | 4.32 | 0.85 | 0.577 | 0.417 | 0.456 | 0.42 | 0.484 | 0.546 | 0.463 | 0.469 | 0.492 | 0.536 | 0.744 | 0.883 |
| NVVNEYSSELE [FGB_Y172] | 0.463 | 0.932 | 0.556 | 1.19 | 0.717 | 0.482 | 0.515 | 0.422 | 0.627 | 0.769 | 0.515 | 0.611 | 0.628 | 0.565 | 0.99 | 1.25 |
| DLEKTYNTFRS [B4GALNT2_Y538_A533D_YF] | 0.629 | 0.846 | 0.506 | 0.656 | 0.523 | 1.75 | 0.967 | 0.291 | 0.319 | 0.55 | 0.391 | 0.445 | 0.734 | 0.431 | 0.736 | 0.851 |
| DTERIYDDDFF [UBA1_Y560] | 0.611 | 0.836 | 0.599 | 1.36 | 1.01 | 0.736 | 0.748 | 0.702 | 0.62 | 0.876 | 0.995 | 0.661 | 0.668 | 0.605 | 1.63 | 1.41 |
| IYHLSYLHNCE [PDE6B_Y227] | 1 | 0.959 | 0.792 | 1.46 | 3.41 | 2.56 | 2.63 | 3.92 | 0.764 | 1.74 | 1.28 | 0.778 | 1.75 | 1.95 | 1.26 | 1.54 |
| PSAELYSYALP [PDGFRB_Y716_N718Y] | 0.641 | 0.966 | 3.46 | 3.71 | 1.55 | 5.38 | 6.1 | 16.8 | 21.2 | 10 | 25.8 | 18 | 8.81 | 10.6 | 0.947 | 1.92 |

The next lines start with results.

| SH2 binding enrichment [14] | SH2 binding enrichment [15] | SH2 binding enrichment [16] | Sequence | phosphorylation enrichment [1] | phosphorylation enrichment [2] | phosphorylation enrichment [3] | phosphorylation enrichment [4] | phosphorylation enrichment [5] | phosphorylation enrichment [6] | phosphorylation enrichment [7] | phosphorylation enrichment [8] | phosphorylation enrichment [9] | phosphorylation enrichment [10] | phosphorylation enrichment [11] | phosphorylation enrichment [12] | phosphorylation enrichment [13] |
| --- | --- | --- | --- | --- | --- | --- | --- | --- | --- | --- | --- | --- | --- | --- | --- | --- |
| 0.829 | 0.871 | 0.973 | GVRLYYRVMES [RB1_Y454] | 1.03 | 0.731 | 0.333 | 0.438 | 0.419 | 0.574 | 0.711 | 0.538 | 0.587 | 0.437 | 0.535 | 1.02 | 1.26 |
| 0.426 | 0.888 | 1.32 | PSPMPYACCQM [FOXL2_Y215_S217C] | 0.703 | 0.49 | 1.02 | 0.71 | 0.615 | 0.437 | 0.812 | 0.831 | 0.663 | 0.427 | 0.494 | 0.516 | 1.3 |
| 0.559 | 0.728 | 0.389 | VDASFCGGRGV [ANTXR2_Y381_Y381C_YF] | 0.818 | 0.744 | 0.413 | 0.405 | 0.396 | 0.495 | 0.629 | 0.49 | 0.514 | 0.539 | 0.531 | 0.894 | 1.11 |
| 1.12 | 1.37 | 1.26 | KLQQWYREHRS [GPI_Y17] | 0.6 | 0.548 | 0.384 | 0.382 | 0.355 | 0.399 | 0.475 | 0.392 | 0.37 | 0.44 | 0.434 | 0.567 | 0.613 |
| 0.823 | 1.15 | 0.632 | NTGDFCDLFGG [PTPN11_Y63_Y63C_YF] | 1.01 | 0.655 | 0.413 | 0.499 | 0.486 | 0.555 | 0.653 | 0.487 | 0.584 | 0.578 | 0.511 | 0.969 | 1.11 |
| 0.721 | 0.979 | 0.667 | FFRKVYHLASV [RBL1_Y796_YF] | 0.697 | 0.581 | 0.503 | 0.491 | 0.36 | 0.415 | 0.545 | 0.374 | 0.439 | 0.337 | 0.46 | 0.713 | 0.781 |
| 0.689 | 0.82 | 1.19 | RSSNTYTLTDV [ALCAM_Y298] | 0.766 | 0.669 | 1.58 | 1.6 | 0.766 | 0.561 | 0.705 | 1.04 | 0.544 | 0.951 | 0.519 | 0.805 | 0.921 |
| 0.718 | 0.785 | 0.621 | PIAPVYAPSMV [ACAT1_Y331_A333P] | 1.35 | 49.8 | 8.41 | 9.96 | 4.7 | 2.72 | 1.22 | 16.1 | 2.4 | 21 | 0.779 | 0.738 | 1.67 |
